Measurements: patent publication US20200199206A1 (AC THERA, published 2020)

B1: clone 60 (VHH)
VHH: EVQLQASGGGFVQPGGSLRLSCAASGSTFKHSAMGWFRQAPGKEREFVSAISSGPGMESYYADSVKGRFTISRDNSKNTVYLQMNSLRAEDTATYYCAGRAFPGQKMYWGQGTQVTVSS
B2: clone 28 (VHH)
VHH: EVQLQASGGGFVQPGGSLRLSCAASGASYRGTSMGWFRQAPGKEREFVSAISFRPDQQPYYADSVKGRFTISRDNSKNTVYLQMNSLRAEDTATYYCAERRQHSRGLYWGQGTQVTVSS
B3: clone 26 (VHH)
VHH: EVQLQASGGGFVQPGGSLRLSCAASGAYSARTTMGWFRQAPGKEREFVSAISAHEGQAPYYADSVKGRFTISRDNSKNTVYLQMNSLRAEDTATYYCATRAHEPKGMYWGQGTQVTVSS
B4: clone 44 (VHH)
VHH: EVQLQASGGGFVQPGGSLRLSCAASGFTSGSTAMGWFRQAPGKEREFVSAISRFENQGNYYADSVKGRFTISRDNSKNTVYLQMNSLRAEDTATYYCATRAVASSTMYWGQGTQVTVSS
B5: clone 42 (VHH)
VHH: EVQLQASGGGFVQPGGSLRLSCAASGDGSFASAMGWFRQAPGKEREFVSAISAHAGGSPYYADSVKGRFTISRDNSKNTVYLQMNSLRAEDTATYYCAQRIGATRAMYWGQGTQVTVSS
B6: clone 57 (VHH)
VHH: EVQLQASGGGFVQPGGSLRLSCAASGGTSFQTAMGWFRQAPGKEREFVSAISSRQGSHPYYADSVKGRFTISRDNSKNTVYLQMNSLRAEDTATYYCATRMTETRKMYWGQGTQVTVSS
B7: clone 49 (VHH)
VHH: EVQLQASGGGFVQPGGSLRLSCAASGGFFTSSTMGWFRQAPGKEREFVSAISRQHDNAPYYADSVKGRFTISRDNSKNMVYLQMNSLRAEDTATYYCAARNATHKGIYWGQGTQVTVSS
B8: clone 66 (VHH)
VHH: EVQLQASGGGFVQPGGSLRLSCAASGTGSNASAMGWFRQAPGKEREFVSAISRHEGQPPYYADSVKGRFTISRDNSKNTVYLQMNSLRAEDTATYYCAMRYQSHIDIPGDSSPKLMYWGQGTQVTVSS
B9: clone 40 (VHH)
VHH: EVQLQASGGGFVQPGGSLRLSCAASGRTFDGSAMGWFRQAPGKEREFVSAISASPSGESYYADSVKGRFTISRDNSKNTVYLQMNSLRAEDTATYYCAGRGRSQKSMYWGQGTQVTVSS
B10: clone 41 (VHH)
VHH: EVQLQASGGGFVQPGGSLRLSCAASGDTWRTTAMGWFRQAPGKEREFVSAISGGDNRGTYYADSVKGRFTISRDNSKNTVYLQMNSLRAEDTATYYCAGRLNQNGPMYWGQGTQVTVSS
B11: clone 5 (VHH)
VHH: EVQLQASGGGFVQPGGSLRLSCAASGTTSFRDTMGWFRQAPGKEREFVSAISWNEGHAHYYADSVKGRFTISRDNSKNTVYLQMNSLRAEDTATYYCASEDMWFNHFYWGQGTQVTVSS
B12: clone 3 (VHH)
VHH: EVQLQASGGGFVQPGGSLRLSCAASGSTSYSYNMGWFRQAPGKEREFVSAISRDGDWKNYYADSVKGRFTISRDNSKNTVYLQMNSLRAEDTATYYCAFEEHWMTPLYWGQGTQVTVSS
B13: clone 1 (VHH)
VHH: EVQLQASGGGFVQPGGSLRLSCAASGDTYRWDNMGWFRQAPGKEREFVSAISGLGNMDSYYADSVKGRFTISRDNSKNTVYLQMNSLRAEDTATYYCAQEEKWMSPQYWGQGTQVTVSS
B14: clone 4 (VHH)
VHH: EVQLQASGGGFVQPGGSLRLSCAASGRTFRIDTMGWFRQAPGKEREFVSAISFDTSHENYYADSVKGRFTISRDNSKNTVYLQMNSLRAEDTATYYCAPESMWFSIEYWGQGTQVTVSS
B15: clone 2 (VHH)
VHH: EVQLQASGGGFVQPGGSLRLSCAASGFFSNIEDMGWFRQAPGKEREFVSAISGYENESPYYADSVKGRFTISRDNSKNTVYLQMNSLRAEDTATYYCAAQSYHGKKGMTEYWGQGTQVTVSS
B16: clone 10 (VHH)
VHH: EVQLQASGGGFVQPGGSLRLSCAASGRTSWSEIMGWFRQAPGKEREFVSAISRYTDDYSYYADSVKGRFTISRDNSKNTVYLQMNSLRAEDTATYYCATYHYQYGGDQTFYWGQGTQVTVSS
B17: clone 6 (VHH)
VHH: EVQLQASGGGFVQPGGSLRLSCAASGTTYSSDTMGWFRQAPGKEREFVSAISGRQNWDRYYADSVKGRFTISRDNSKNTVYLQMNSLRAEDTATYYCAYWGHGTYEFDPKSMYWGQGTQVTVSS
B18: clone 9 (VHH)
VHH: EVQLQASGGGFVQPGGSLRLSCAASGSYSAETDMGWFRQAPGKEREFVSAISGDPTTTTYYADSVKGRFTISRDNSKNTVYLQMNSLRAEDTATYYCAYQRLDNFEIYWGQGTQVTVSS
B19: clone 7 (VHH)
VHH: EVQLQASGGGFVQPGGSLRLSCAASGTSYANSDMGWFRQAPGKEREFVSAISGGDSAYYYYADSVKGRFTISRDNSKNTVYLQMNSLRAEDTATYYCATQQIGMREYYWGQGTQVTVSS
B20: clone 8 (VHH)
VHH: EVQLQASGGGFVQPGGSLRLSCAASGSTSSHYDMGWFRQAPGKEREFVSAISYNHDHDTYYADSVKGRFTISRDNSKNTVYLQMNSLRAEDTATYYCAGATATTDGGYQEYWGQGTQVTVSS

Target: T1, EF-Biotin (B. anthracis, UniProt P40136 34-800)
T1 sequence: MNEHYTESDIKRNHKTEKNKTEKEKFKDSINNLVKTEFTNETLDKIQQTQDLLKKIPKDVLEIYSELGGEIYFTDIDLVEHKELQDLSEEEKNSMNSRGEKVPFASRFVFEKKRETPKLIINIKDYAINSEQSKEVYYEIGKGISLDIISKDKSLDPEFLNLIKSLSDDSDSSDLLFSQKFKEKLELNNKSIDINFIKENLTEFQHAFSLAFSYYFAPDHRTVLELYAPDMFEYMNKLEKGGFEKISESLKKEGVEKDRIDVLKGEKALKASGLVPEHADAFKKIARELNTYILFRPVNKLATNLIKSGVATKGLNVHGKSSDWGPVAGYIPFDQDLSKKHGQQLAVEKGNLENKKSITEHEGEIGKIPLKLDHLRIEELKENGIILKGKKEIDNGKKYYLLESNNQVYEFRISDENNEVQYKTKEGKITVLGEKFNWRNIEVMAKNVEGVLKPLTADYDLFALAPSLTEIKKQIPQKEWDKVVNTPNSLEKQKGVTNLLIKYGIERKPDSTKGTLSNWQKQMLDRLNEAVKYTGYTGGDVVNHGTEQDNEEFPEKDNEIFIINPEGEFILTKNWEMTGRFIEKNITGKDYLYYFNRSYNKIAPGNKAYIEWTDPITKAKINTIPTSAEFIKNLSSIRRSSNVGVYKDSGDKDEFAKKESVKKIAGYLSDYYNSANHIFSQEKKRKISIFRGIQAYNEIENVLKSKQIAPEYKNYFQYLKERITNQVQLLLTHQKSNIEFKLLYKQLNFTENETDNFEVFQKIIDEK
Assay: non-adsorbed VHH ELISA, IPTG-induced VHH-myc, EF-Biotin (Ag+) vs control (Ag-)

Row | Binder | Phage IPTG Ag+/Ag- [ratio]
1 | B1 | 4.9
2 | B2 | 6.6
3 | B3 | 10.2
4 | B4 | 6.1
5 | B5 | 5
6 | B6 | 6.3
7 | B7 | 3.6
8 | B8 | 5.8
9 | B9 | 6.2
10 | B10 | 5.7

Target: T2, LF-Biotin (B. anthracis, UniProt P15917 34-809)
T2 sequence: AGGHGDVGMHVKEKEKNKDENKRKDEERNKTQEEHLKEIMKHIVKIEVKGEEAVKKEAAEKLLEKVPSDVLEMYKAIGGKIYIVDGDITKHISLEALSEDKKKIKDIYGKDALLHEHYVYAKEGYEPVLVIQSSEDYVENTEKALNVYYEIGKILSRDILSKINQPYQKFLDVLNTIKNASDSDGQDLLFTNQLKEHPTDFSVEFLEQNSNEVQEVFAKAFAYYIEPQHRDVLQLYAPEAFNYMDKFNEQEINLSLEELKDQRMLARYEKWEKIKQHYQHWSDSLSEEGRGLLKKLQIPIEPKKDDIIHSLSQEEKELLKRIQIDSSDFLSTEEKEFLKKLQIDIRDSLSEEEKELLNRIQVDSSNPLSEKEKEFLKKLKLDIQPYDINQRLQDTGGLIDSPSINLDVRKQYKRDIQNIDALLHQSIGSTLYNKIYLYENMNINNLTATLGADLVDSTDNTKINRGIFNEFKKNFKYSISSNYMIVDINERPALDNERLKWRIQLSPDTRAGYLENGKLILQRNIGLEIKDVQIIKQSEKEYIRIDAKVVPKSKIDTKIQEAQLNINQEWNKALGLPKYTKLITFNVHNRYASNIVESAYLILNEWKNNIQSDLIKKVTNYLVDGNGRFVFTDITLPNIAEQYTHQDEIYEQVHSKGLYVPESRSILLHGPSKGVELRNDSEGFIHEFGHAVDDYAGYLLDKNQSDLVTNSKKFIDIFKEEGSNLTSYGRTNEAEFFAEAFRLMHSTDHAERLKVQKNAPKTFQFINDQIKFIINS
Assay: non-adsorbed phage ELISA, VHH on M13 phage, LF-Biotin vs His-SNAP-Halo-Biotin

Row | Binder | Phage ELISA ratio signal LF/signal His-SNAP-Halo [ratio]
11 | B11 | 41.5
12 | B12 | 47.2
13 | B13 | 45.5
14 | B14 | 34.6
15 | B15 | 36.5
16 | B16 | 7.7
17 | B17 | 8.9
18 | B18 | 38.1
19 | B19 | 17
20 | B20 | 30.2

Target: T1, EF-Biotin
Assay: not given

Row | Binder | Phage ELISA Ag+/Ag- [ratio]
21 | B1 | 43.6
22 | B2 | 44.5
23 | B3 | 51.3
24 | B4 | 52.7
25 | B5 | 36.2
26 | B6 | 40.1
27 | B7 | 36.7
28 | B8 | 51.8
29 | B9 | 31.5
30 | B10 | 36.7

Target: T2, LF-Biotin
Assay: non-adsorbed VHH ELISA, IPTG-induced VHH-myc, LF-Biotin vs His-SNAP-Halo-Biotin

Row | Binder | Induced ELISA ratio Signal LF/signal His-SNAP-Halo [ratio]
31 | B11 | 8
32 | B12 | 6.3
33 | B13 | 6.3
34 | B14 | 9.2
35 | B15 | 5
36 | B16 | 3.9
37 | B17 | 7.3
38 | B18 | 4.6
39 | B19 | 6.8
40 | B20 | 5.5
